The values below come from article PMC3695765.

The target of the assay is FLAG-ZO-2 (UniProt Q9UDY2). Briefly: GST pull-down from cell lysate. Particulars: reference: GST-OccC not prephosphorylated; sites T400,T404,S408.

For the substance “occludin C-terminal cytoplasmic tail, 263-523 (from UniProt Q16625) GST-OccC prephosphorylated by CK2”, the “binding against the reference” value is reported as “weaker”.
